This assay concerns the target T1, Insulin from Porcine Pancreas (antigen) (Sus scrofa, UniProt P01315).
T1 construct: Insulin from Porcine Pancreas; purchased SIGMA 1-5523; host or cells: porcine pancreas (tissue-derived)
The assay is described as follows: Guinea pig ID immunization with porcine insulin; antigen/antibody complex by Dextran coated Charcoal Radioimmunoassay. Type of assay: in vivo, Dunkin Hartley male Guinea Pigs. The procedure: Various animals (e.g., Guinea pigs) are used in industry to produce primary and secondary antibodies for biological and clinical research, based on immunoassay methods (e.g. ELISA). In some of these animals the specific antigen is injected intradermally, in order to achieve a larger and/or faster immune response (antibodies production). After the primary immunization, several immunization boosters are given at different time intervals, and blood is collected. The antibodies production level is measured by measuring the antigen/antibody complex formation levels, in different dilution levels, using conventional immunoassay methods. Usually, a fixed cut-off value (percentage of antigen/antibodies complex formation in a specific dilution level) must be achieved.
18 Dunkin Hartley male Guinea Pigs were divided into two groups. The animals were anesthetized with a 0.2 ml of Ketamine/Xylazine mixture (1:1 ratio) I.M. Anesthetizing was followed by 0.1 ml I.D. immunization with Insulin from Porcine Pancreas (SIGMA, Cat. No. 1-5523) in a Freund's adjuvant emulsion mixture (SIGMA), injected in 4 sites on the skin. […] After plasma separation, antigen/antibody complex levels were detected in the 2 ml serum sample, using a Dextran coated Charocal Radioimmunoassay method.

T1 sequence (P01315 25-54 limits assumed): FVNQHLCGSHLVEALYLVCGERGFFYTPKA
T1 sequence (P01315 88-108 limits assumed): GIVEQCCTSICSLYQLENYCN

In the case of “Insulin from Porcine Pancreas: Insulin from Porcine Pancreas (SIGMA) in a Freund's adjuvant emulsion mixture, used as immunizing antigen”, the “production time needed to achieve the per-protocol cut-off value, microneedle versus regular injection” value (cut-off 50% Antigen/Antibody complex formation at dilution 1:80 K, microneedle vs regular 25 g needle) was determined as 3 times shorter. In addition, the “Antigen/Antibody complex formation, Ka [L/mol] values, microneedle versus regular injection” value (dilution level 1:80K, ID microneedles (Nano) vs regular 25 g hypodermic needle, in Freund's adjuvant) is on record as “more than 3 times higher”.

The values are drawn from US20090012494A1, “I[…] OF BIOLOGICAL AGENTS” (NanoPass Technologies Ltd., priority 2006, published 2009).
